Source: article PMC3554232
Read-outs that look alike come from different tables or passages of the source.

Tests used:
Assay in all cases: smFRET
yNhp6A [1] = biological target: T1, yNhp6A (Saccharomyces cerevisiae, UniProt P11632 1-93)
yNhp6A [2] = biological target: T1, yNhp6A; remark: listed apart in the source
yNhp6A [3] = biological target: T1, yNhp6A; remark: listed apart in the source
yNhp6A [4] = biological target: T1, yNhp6A; remark: listed apart in the source

T1 sequence (P11632 whole entry): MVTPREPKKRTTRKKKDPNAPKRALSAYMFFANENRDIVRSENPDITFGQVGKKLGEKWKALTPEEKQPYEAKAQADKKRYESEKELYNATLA

B1: linear_18a (dsDNA)
DNA 1: TGGCGACGGCAGCGAGGC
DNA 2: GCCTCGCTGCCGTCGCCATTTTTTTTTTTTTTT
For B1, the Kd (yNhp6A [1]) was ~1 nM.

B2: linear_15a (dsDNA)
DNA 1: CGACGGCAGCGAGGC
DNA 2: B1 DNA 2
B2: binds (yNhp6A [2]).

B3: bulge_18a (dsDNA)
DNA 1: TGGCGACGGAACAGCGAGGC
DNA 2: B1 DNA 2
With B3 the binding signal (yNhp6A [3]) was ~2 fold kon vs linear_18a.

B4: bulge_15a (dsDNA)
DNA 1: CGACGGCAAAGCGAGGC
DNA 2: B1 DNA 2
B4: binds (yNhp6A [2]).

B5: linear_18b (dsDNA)
DNA 1: TGGTTATATCATCTAGGC
DNA 2: GCCTAGATGATATAACCATTTTTTTTTTTTTTT
B5 was tested, and the binding signal (yNhp6A [4]) was ~2 fold affinity vs linear_18a.
